What was measured:
[1] = target: T1, TGFBRII (type II TGF-β receptor) (Homo sapiens, UniProt P37173); test: 125I TGF-β1 / TGFBRII cross-linking (DSS) and anti-HA immunoprecipitation in transfected HEK293T cells; type: binding; conditions: HEK293T transfected with TGFBRII-HA and Flag-EMI-domain-GPI; iodinated TGF-β1; FIG. 2A
T1 construct: expressed in transfected cells; host or cells: HEK293T
Procedure: Experiments were performed according to standard methods (Massague, 1987). Briefly, a solution of iodinated TGF-β1 (Amersham) was applied to HEK293T cells grown in 24 well plates and transfected with a plasmid carrying the sequence of TGFBRII (type II TGF-β receptor) fused to the HA epitope. After appropriate incubation and washing, the cell layer was exposed to a solution of DSS (disuccinimidyl suberate), a compound that favors formation of covalent cross-links between interacting molecules. The cell layer was extracted with immunoprecipitation buffer (RIPA-buffer) and subjected to the immunoprecipitation procedure with anti-HA antibody. The immunoprecipitate was solubilized with FSB (final sample buffer), separated by SDS-PAGE and radioactive complexes were detected by autoradiography. Molar excess of unlabeled TGF-β was used in parallel experiments. In other experiments, cells were simultaneously transfected with TGFBRII and with expression vectors driving expression of the emilin-1 EMI domain bound to GPI (glycosylphosphatidylinositol), a moiety which anchors the EMI domain to the cell membrane, that was tagged with the Flag epitope (Flag-EMI-domain-GPI).
Transfected cells, usually HEK293T, were incubated in Optimem (Invitrogen) for 24 hours prior to collection. […]

pro TGF-β1 processing = target: T2, pro TGF-β1 processing (Homo sapiens, UniProt P01137); test: Western blot of pro TGF-β1 conversion to LAP and mature TGF-β1 in transfected HEK293T cells; type: cell-based; conditions: HEK293T cotransfected; cell extracts anti-LAP, supernatants anti-TGF-β1; FIG. 4D
T2 construct: Flag; expressed in transfected cells; host or cells: HEK293T (A6); mouse embryo fibroblasts (A8)
Description: • The construct for emilin 1 expression was engineered in pCS2 vector (Rupp R. A. et al., 1994, Genes Dev 8, 1311-1323) (for a physical map of the vector, see the site faculty.washington.edu/rtmoon/pcs2+.html) as described (Zanetti M. et al., 2004, Mol Cell Biol 24, 638-650); the vector used for proTGF-β expression in MEF and HEK293T cells is pCDNA3.1 (Invitrogen). Vectors containing the coding sequence for human pro TGF-β are described in Young and Murphy-Ullrich, 2004 (Young and Murphy-Ullrich, 2004, J Biol Chem 279, 38032-38039). The human pro TGF-β cDNA sequence is reported in the data bank (NP_000660; protein 000651). • The vector for Furin/SPC 1 expression is pCDNA3.1 (Invitrogen) • p15 and CAGA 12 promoter fragments are described in Jonk L. J. et al., 1998, J Biol Chem 273, 21145-21152 […]. • Constructs containing Flag sequences are described in Young G. D and Murphy-Ullrich J E, 2004, J Biol Chem 279, 38032-38039. • Constructs containing the Flag epitope (e.g. Flag-EMI-domain-GPI) were prepared as described in Chubet R G et al. Biotechniques 1996; 20(1):136-141 and detected by anti-Flag antibody (Kodak Inc.). • Constructs containing the GPI anchor were prepared as described in the Manual “Current Protocols in Cell Biology” Howard R. Petty Wayne State University, Detroit, Mich.; Juan S. Bonifacino, Mary Dasso, Joe B. Harford, Jennifer Lippincott-Schwartz, and Kenneth M. Yamada (eds.), Copyright C 2003 John Wiley & Sons, Inc. (GPI-anchor). In the construct Flag-EMI domain-GPI, the Flag sequence was inserted at the N-terminus after the signal peptide, while the GPI-anchor sequence was placed at the COOH-terminal end. • The construct emilin 1-KDEL was obtained by inserting the KDEL coding sequence described by Munro S., and Pelham, H. R., 1987, Cell 48, 899-907 upstream the emilin 1 STOP codon. • The construct containing the type II TGF-β receptor with HA epitope was described in Wrana J. L. et al., 1994, Nature 370, 341-347. • supplier of the drugs used: SP600125 (Calbiochem), SB431542 (Tocris). • Purified recombinant LAP and TGF-β1 proteins were purchased from (R&D Systems)
To verify whether emilin or its EMI domain inhibit TGF-β or its precursor, HEK293T cells were cotransfected with plasmids driving the expression of pro TGF-β1 (fused to the FLAG-domain, even though the antibody used were directed at LAP and TGF-β proteins) and emilin-1 (or EMI-domain). […] The anti-Flag antibody used was obtained from Kodak Inc; for the preparation of Flag constructs, see Younjg and Murphy-Ullrich (Young and Murphy-Ullrich, 2004).
As reported in the summary scheme above FIG. 5A, HEK293T cells were transfected with the plasmid encoding pro TGF-β1 (lane 1) and cotransfected with emilin-1 (lane 3) or treated with decanoyl-RVKR-CMK peptide (Decanoyl-Arg-Val-Lys-Arg-chloromethylketone, Alexis Corporation, Lausen, Switzerland) (lane 2) at a concentration of 100 μM. The peptide is an irreversible and competitive inhibitor of furin proprotein convertase and of other SPC family members (Proprotein Convertase); in addition, it inhibits pro-MMP2 dependent furin activation. The supernatant was then loaded on SDS-PAGE and detected by Western-blot with anti-TGF-β1 antibody. […] An increase of the precursor band in lanes 2 and 3 is […] to the decrease of TGF-β. Therefore it can be concluded that this assay detects an effect of emilin-1 on TGF-β1 processing that is similar to the effect of Furin inhibitors.

TGF-β3 = test: Experiments in Xenopus on interaction of the EMI domain with TGF-β3

T2 sequence (P01137 30-390): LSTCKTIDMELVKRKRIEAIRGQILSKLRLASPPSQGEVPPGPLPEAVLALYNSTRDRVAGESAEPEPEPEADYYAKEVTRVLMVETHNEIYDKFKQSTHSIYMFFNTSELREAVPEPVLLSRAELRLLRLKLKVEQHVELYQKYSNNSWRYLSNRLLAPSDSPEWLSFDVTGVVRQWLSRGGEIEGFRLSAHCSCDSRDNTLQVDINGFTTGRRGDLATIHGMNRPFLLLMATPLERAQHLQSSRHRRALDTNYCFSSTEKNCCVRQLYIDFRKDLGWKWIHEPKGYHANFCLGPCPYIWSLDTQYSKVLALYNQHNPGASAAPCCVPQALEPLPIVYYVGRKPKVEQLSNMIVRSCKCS
T1 sequence (P37173 23-567): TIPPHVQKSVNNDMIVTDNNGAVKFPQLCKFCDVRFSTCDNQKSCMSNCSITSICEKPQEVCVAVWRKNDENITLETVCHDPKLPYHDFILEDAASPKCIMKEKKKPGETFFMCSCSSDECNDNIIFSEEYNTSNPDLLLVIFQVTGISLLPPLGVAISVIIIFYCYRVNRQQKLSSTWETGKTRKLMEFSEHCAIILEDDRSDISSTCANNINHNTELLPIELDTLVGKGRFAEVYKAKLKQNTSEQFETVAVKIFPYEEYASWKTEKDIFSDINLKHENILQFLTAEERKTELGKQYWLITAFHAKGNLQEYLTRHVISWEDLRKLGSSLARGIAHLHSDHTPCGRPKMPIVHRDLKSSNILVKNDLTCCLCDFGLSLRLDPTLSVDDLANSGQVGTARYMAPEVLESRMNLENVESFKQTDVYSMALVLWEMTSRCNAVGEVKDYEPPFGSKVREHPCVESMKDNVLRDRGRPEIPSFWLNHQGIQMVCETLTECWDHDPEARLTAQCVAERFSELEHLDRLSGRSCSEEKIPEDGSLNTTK

B1: EMI domain: cysteine-rich domain of emilin-1, residues 55-131, SEQ ID NO 2; in some experiments Flag-tagged and GPI-anchored (protein)
chain: RHRNWCAYVVTRTVSCVLEDGVETYVKYQPCAWGQPQCPQSIMYRRFLRPRYRVAYKTVTDMEWRCCQGYGGDDCAE
modifications: sometimes Flag tag and GPI anchor; homo sapiens
notes: in some experiments Flag-tagged and GPI-anchored
With B1 the “Competition with TGF-β for binding to TGFBRII (TGFBRII/TGF-β complex band)” value [1] was “does non compete with TGF-β for binding to TGFBRII”, the “Conversion of pro TGF-β1 to LAP and mature TGF-β1 (band intensity)” value (pro TGF-β1 processing) was “inhibit the conversion of pro TGF-β1” and the “Interaction with TGF-β3” value (TGF-β3) was “interaction”.
